What all share (test): cell-based or functional assay
Test [1] has as its target human glucagon receptor (human) (UniProt P47871).
Another test concerns the target hGLP-1R (Homo sapiens, UniProt P43220).
The target of test [2] is T1, human GIP receptor (human) (UniProt P48546).
T1 sequence (looked up): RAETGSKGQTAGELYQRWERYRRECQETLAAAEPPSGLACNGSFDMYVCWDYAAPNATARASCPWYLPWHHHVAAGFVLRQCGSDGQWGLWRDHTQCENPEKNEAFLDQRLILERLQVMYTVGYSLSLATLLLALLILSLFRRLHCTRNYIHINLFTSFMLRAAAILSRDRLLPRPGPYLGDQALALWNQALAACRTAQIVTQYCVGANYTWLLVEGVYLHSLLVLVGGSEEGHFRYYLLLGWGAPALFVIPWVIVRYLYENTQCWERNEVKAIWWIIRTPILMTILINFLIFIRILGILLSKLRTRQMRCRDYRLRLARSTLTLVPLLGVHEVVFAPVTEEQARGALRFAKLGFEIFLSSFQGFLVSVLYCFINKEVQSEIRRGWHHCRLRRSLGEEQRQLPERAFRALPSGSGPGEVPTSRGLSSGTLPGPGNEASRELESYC

Residue numbers refer to the chain shown, from its start.

Sequence of human glucagon receptor (human) (P47871 26-477): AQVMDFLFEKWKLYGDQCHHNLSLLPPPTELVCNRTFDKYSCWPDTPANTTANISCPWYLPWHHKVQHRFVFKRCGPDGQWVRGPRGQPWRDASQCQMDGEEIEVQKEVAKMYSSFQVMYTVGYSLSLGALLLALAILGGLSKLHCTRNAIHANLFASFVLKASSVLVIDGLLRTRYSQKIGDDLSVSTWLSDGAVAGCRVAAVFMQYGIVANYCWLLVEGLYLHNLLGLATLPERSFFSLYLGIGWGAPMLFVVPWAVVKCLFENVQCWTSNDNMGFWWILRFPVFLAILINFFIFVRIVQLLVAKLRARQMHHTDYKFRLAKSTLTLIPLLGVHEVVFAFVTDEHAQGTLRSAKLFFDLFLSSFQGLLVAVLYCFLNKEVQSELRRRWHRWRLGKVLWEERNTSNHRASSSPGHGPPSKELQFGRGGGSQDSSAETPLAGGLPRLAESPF
Sequence of hGLP-1R (P43220 24-463): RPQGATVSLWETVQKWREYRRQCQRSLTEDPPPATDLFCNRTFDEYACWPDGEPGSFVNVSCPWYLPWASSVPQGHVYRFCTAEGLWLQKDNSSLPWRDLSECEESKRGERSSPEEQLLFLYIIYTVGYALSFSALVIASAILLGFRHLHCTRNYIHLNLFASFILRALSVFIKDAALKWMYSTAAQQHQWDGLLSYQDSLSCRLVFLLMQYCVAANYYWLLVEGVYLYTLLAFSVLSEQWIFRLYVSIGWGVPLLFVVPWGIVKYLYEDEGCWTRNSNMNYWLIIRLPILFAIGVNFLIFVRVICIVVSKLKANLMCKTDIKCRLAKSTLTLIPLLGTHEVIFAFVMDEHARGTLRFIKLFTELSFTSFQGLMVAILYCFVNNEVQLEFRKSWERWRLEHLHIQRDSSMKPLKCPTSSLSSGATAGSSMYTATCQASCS

B1: Example 598 (peptide)
chain: YXQGTXTSDXXIXLDXKAQXXFIEXLTEGGPSSGEPPPEGTEEE
modifications: non-natural residues; (γGlu)2-C18 diacid on Lys; C-terminal amide; synthetic construct; SITE 2: note = 2-Aminoisobutyric Acid; SITE 6: note = alpha-methyl-2-fluoro-L-phenylalanine; SITE 10: note = 3-(4-Pyridyl)-L-alanine; SITE 11: note = alpha-methyl-L-serine; SITE 13: note = alpha-methyl-leucine; SITE 16: note = L-ornithine; SITE 17: note = Lysine is chemically mo
Consider B1, for which the Relative cAMP EC50 in test [1] was 8.79 nM; in the test with hGLP-1R, 0.886 nM; in test [2], 0.0927 nM. Besides, the cAMP Rel EC50 (in the presence of 1% HSA) was 457 nM in test [1], 47.3 nM with hGLP-1R and 3.49 nM in test [2].

B2: Example 530 (peptide)
chain: YXQGTXTSDXXIXLDXKAQXXFIEYLSEGGPSSGEPPPSGTE
modifications: synthetic construct; SITE 2: note = 2-Aminoisobutyric Acid; SITE 6: note = alpha-methyl-2-fluoro-L-phenylalanine; SITE 10: note = 3-(4-Pyridyl)-L-alanine; SITE 11: note = alpha-methyl-L-serine; SITE 13: note = alpha-methyl-leucine; SITE 16: note = L-ornithine; SITE 17: note = Lysine is chemically mo
For the molecule B2, the Relative cAMP EC50 was 17.1 nM in test [1], 4.91 nM with hGLP-1R and 0.874 nM in test [2]. Further, the cAMP Rel EC50 (1% HSA) in test [1] amounted to 1280 nM; with hGLP-1R, 437 nM; in test [2] it was 63.7 nM.

B3: Example 544 (peptide)
chain: B2 chain with Y25X, S27A
modifications: synthetic construct; SITE 2: note = 2-Aminoisobutyric Acid; SITE 6: note = alpha-methyl-2-fluoro-L-phenylalanine; SITE 10: note = 3-(4-Pyridyl)-L-alanine; SITE 11: note = alpha-methyl-L-serine; SITE 13: note = alpha-methyl-leucine; SITE 16: note = L-ornithine; SITE 17: note = Lysine is chemically mo
Turning to B3, the Relative cAMP EC50 worked out at 2.71 nM in test [1], 0.623 nM with hGLP-1R and 0.041 nM in test [2]. Also, the cAMP Rel EC50 (1% HSA) came to 171 nM in test [1], 43 nM with hGLP-1R and 2.4 nM in test [2].

B4: Example 542 (peptide)
chain: B2 chain with Y25X, S27T
modifications: synthetic construct; SITE 2: note = 2-Aminoisobutyric Acid; SITE 6: note = alpha-methyl-2-fluoro-L-phenylalanine; SITE 10: note = 3-(4-Pyridyl)-L-alanine; SITE 11: note = alpha-methyl-L-serine; SITE 13: note = alpha-methyl-leucine; SITE 16: note = L-ornithine; SITE 17: note = Lysine is chemically mo
Regarding B4, the Relative cAMP EC50 stood at 5.03 nM in test [1], 0.388 nM with hGLP-1R and 0.0336 nM in test [2]. Besides, the cAMP Rel EC50 (1% HSA) in test [1] worked out at 256 nM; with hGLP-1R, 29.6 nM; in test [2], 1.69 nM.

B5: Example 532 (peptide)
chain: B2 chain with S27L
modifications: synthetic construct; SITE 2: note = 2-Aminoisobutyric Acid; SITE 6: note = alpha-methyl-2-fluoro-L-phenylalanine; SITE 10: note = 3-(4-Pyridyl)-L-alanine; SITE 11: note = alpha-methyl-L-serine; SITE 13: note = alpha-methyl-leucine; SITE 16: note = L-ornithine; SITE 17: note = Lysine is chemically mo
For B5, the Relative cAMP EC50 was 1.37 nM in test [1], 0.577 nM in the test with hGLP-1R and 0.0159 nM in test [2]. Moreover, the cAMP Rel EC50 (1% HSA) in test [1] was determined as 157 nM; with hGLP-1R, 47.3 nM; in test [2] it was 1.49 nM.

B6: Example 546 (peptide)
chain: B2 chain with X13L, Y25X, S27Q, S39E, T41A
modifications: synthetic construct; SITE 2: note = 2-Aminoisobutyric Acid; SITE 6: note = alpha-methyl-2-fluoro-L-phenylalanine; SITE 10: note = 3-(4-Pyridyl)-L-alanine; SITE 11: note = alpha-methyl-L-serine; SITE 16: note = L-ornithine; SITE 17: note = Lysine is chemically modified through conjugation of the epsi
Turning to B6, the values for the Relative cAMP EC50 (in test [1]; in the test with hGLP-1R; in test [2]) were 3.67 nM, 0.517 nM and 0.25 nM, respectively. Also, the cAMP Rel EC50 (1% HSA) in test [1] stood at 225 nM; with hGLP-1R, 34.4 nM; in test [2] it was 11.9 nM.

B7: Example 531 (peptide)
chain: B2 chain with X13L, S27I
modifications: synthetic construct; SITE 2: note = 2-Aminoisobutyric Acid; SITE 6: note = alpha-methyl-2-fluoro-L-phenylalanine; SITE 10: note = 3-(4-Pyridyl)-L-alanine; SITE 11: note = alpha-methyl-L-serine; SITE 16: note = L-ornithine; SITE 17: note = Lysine is chemically modified through conjugation of the epsi
For the molecule B7, the Relative cAMP EC50 turned out to be 3.79 nM in test [1], 0.356 nM with hGLP-1R and 0.0694 nM in test [2]. In addition, the values for the cAMP Rel EC50 (1% HSA) (in test [1]; in the test with hGLP-1R; in test [2]) were 465 nM, 37.8 nM and 5.2 nM, respectively.

B8: Example 54 (peptide)
chain: YXQGTFTSDFSKXLDKKAQXAFIEYLLEGGPSSGEPPPGEGX
modifications: synthetic construct; SITE 2: note = 2-Aminoisobutyric Acid; SITE 13: note = alpha-methyl-leucine; SITE 17: note = Lysine is chemically modified through conjugation of the epsilon-amino group of the Lysine side chain with (2-[2-(2-Amino-ethoxy)-ethoxy]-acetyl)-(gamma-Glu)-CO-(CH2) 18-CO2H; SITE 20: n
As for B8, the Relative cAMP EC50 in test [1] amounted to 3.77 nM; with hGLP-1R, 3.95 nM; in test [2], 0.502 nM. Further, the values for the cAMP Rel EC50, nM (in the presence of 1% HSA) (in test [1]; with hGLP-1R; in test [2]) were 1940 nM, 1300 nM and 168 nM, respectively.

B9: Example 56 (peptide)
chain: B8 chain with E35A, G39S
modifications: synthetic construct; SITE 2: note = 2-Aminoisobutyric Acid; SITE 13: note = alpha-methyl-leucine; SITE 17: note = Lysine is chemically modified through conjugation of the epsilon-amino group of the Lysine side chain with (2-[2-(2-Amino-ethoxy)-ethoxy]-acetyl)-(gamma-Glu)-CO-(CH2) 16-CO2H; SITE 20: n
Turning to B9, the Relative cAMP EC50 in test [1] was determined as 2.8 nM; with hGLP-1R, 4.07 nM; in test [2], 0.315 nM. Besides, the cAMP Rel EC50, nM (in the presence of 1% HSA) in test [1] amounted to 265 nM; in the test with hGLP-1R it was 167 nM; in test [2], 30.3 nM.

B10: Example 607 (peptide)
chain: YXQGTXTSDXSILLDKKAQXAFIEYLEEGGPSSGEPPPSGTGE
modifications: Aib, αMeF(2F), 4Pal; acylated K; C-terminal amide; synthetic construct; SITE 2: note = 2-Aminoisobutyric Acid; SITE 6: note = alpha-methyl-2-fluoro-L-phenylalanine; SITE 10: note = 3-(4-Pyridyl)-L-alanine; SITE 17: note = Lysine is chemically modified through conjugation of the epsilon-amino group of the Lysine side chain with (gamma-Glu)2-CO-(CH2)1
For B10, the Relative cAMP EC50 in test [1] is 8.91 nM; with hGLP-1R, 1.15 nM; in test [2] it was 0.0879 nM. Also, the cAMP Rel EC50 (in the presence of 1% HSA) in test [1] was found to be 565 nM; with hGLP-1R, 139 nM; in test [2], 6.63 nM.

B11: Example 609 (peptide)
chain: B10 chain with E35A, G42E
modifications: non-natural residues (Aib, αMeF(2F), 4Pal); lipidated Lys; C-amide; synthetic construct; SITE 2: note = 2-Aminoisobutyric Acid; SITE 6: note = alpha-methyl-2-fluoro-L-phenylalanine; SITE 10: note = 3-(4-Pyridyl)-L-alanine; SITE 17: note = Lysine is chemically modified through conjugation of the epsilon-amino group of the Lysine side chain with (gamma-Glu)2-CO-(CH2)1
Consider B11, for which the Relative cAMP EC50 was 6.46 nM in test [1], 1.07 nM with hGLP-1R and 0.0784 nM in test [2]. For the same molecule, the cAMP Rel EC50 (in the presence of 1% HSA) in test [1] came to 647 nM; in the test with hGLP-1R, 121 nM; in test [2], 6.19 nM.

(Values after patent publication US20240270821A1, “GIP/GLP1/GCG TRI-RECEPTOR AGONISTS AND USES THEREOF” (priority 2023, published 2024).)
